Laboratory results published in paper PMC8696166.

Molecular target: His-GD1 (N-terminally His-tagged GD1 domain of EngA) (Synechococcus elongatus PCC7942)
Assay: pull-down; His-EngA or His-GD1 (6 μg) bound to DynaBeads-Histag, 6 μg PipX–ST added; 50 mM Tris-HCl pH 7, 0.1 M KCl, 10% glycerol, 10 mM MgCl2, 20 mM imidazole, 0.1% Triton-X100, with or without 1 mM GDP, room temperature; elution with 500 mM imidazole; Western blot with antisera against PipX and EngA

Chain of His-GD1 (N-terminally His-tagged GD1 domain of EngA) (Synechococcus elongatus PCC7942) (Q31KP9 1-169): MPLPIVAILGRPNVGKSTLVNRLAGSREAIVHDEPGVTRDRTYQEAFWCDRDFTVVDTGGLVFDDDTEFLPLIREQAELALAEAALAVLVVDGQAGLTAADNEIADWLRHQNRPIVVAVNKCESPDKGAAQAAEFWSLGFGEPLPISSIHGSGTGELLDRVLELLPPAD

retention of PipX (PipX/GD1 band intensity ratio) relative to the PipX/EngA ratio with His-EngA: 10 fold
B1: PipX–ST (C-terminally Strep-tagged PipX) (natural protein)
chain: MASENYLNHPTFGLLYQICSFGDSKELFATLYAQRLFFLVAFDARGTRFEPIGRNEARMLVDNRLRQLRRDASLQEYNQLQQVFKQTFL
